The numbers were not newly measured in article PMC11302571, which cites them from elsewhere.

The target of this series is BT-R3 (Anopheles gambiae).

The Kd is the constant that tells how readily two partners part at equilibrium. With Cry4B toxin (from UniProt P05519), the Kd was 0.036 µM.
